Laboratory results as given in article PMC12301738 (The Journal of Biological Chemistry, 2025).

T1: Escherichia coli RelE toxin, fluorescently labeled (RED-NHS) (Escherichia coli, UniProt P0C077)
T1 sequence: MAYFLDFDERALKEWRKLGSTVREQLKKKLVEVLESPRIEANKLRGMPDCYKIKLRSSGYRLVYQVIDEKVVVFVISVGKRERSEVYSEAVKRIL

B1: Escherichia coli RelB antitoxin truncated at Lys70 (His6-RelBΔ70–79) (domain or fragment)
chain: MGSINLRIDDELKARSYAALEKMGVTPSEALRLMLEYIADNERLPFKQTLLSDEDAELVEIVKERLRNP
B2: Escherichia coli RelB antitoxin, wildtype (His6-RelB) (natural protein)
chain: MGSINLRIDDELKARSYAALEKMGVTPSEALRLMLEYIADNERLPFKQTLLSDEDAELVEIVKERLRNPKPVRVTLDEL
B3: Escherichia coli RelB antitoxin with a stop codon at Leu66 (His6-RelBΔ66–79) (domain or fragment)
chain: MGSINLRIDDELKARSYAALEKMGVTPSEALRLMLEYIADNERLPFKQTLLSDEDAELVEIVKER

Biological target: T1, Escherichia coli RelE toxin, …
Test: other fluorescence titration

In order of falling EC50:
1. B3  24000 nM
2. B1  880 nM
3. B2  2.6 nM
